The source of these data is paper PMC12846830 (Proceedings of the National Academy of Sciences of the …, 2026).

The series deals with the molecule itself. As to the kind of experiment: single-molecule photobleaching step analysis.

B1: EmrE, a multidrug transporter from Escherichia coli, with a tetracysteine tag (TC-Tag) (natural protein)
chain: MNPYIYLGGAILAEVIGTTLMKFSEGFTRLWPSVGTIICYCASFWLLAQTLAYIPTGIAYAIWSGVGIVLISLLSWGFFGQRLDLPAIIGMMLICAGVLIINLLSRSTPH
modifications: FlAsH dye covalently bound to the tetracysteine tag
For the protein B1, the stoichiometry N (usually the number of molecules, sites or subunits per partner or assembly) worked out at 2.
